According to patent US20240327535A1 (EISAI R AND D MANAGEMENT, published 2024):
Where two headings read alike, the source gives them in different places.

T1: extracellular domain of human BCMA (human, UniProt Q02223 1-54)
T1 construct: amine-linked to Octet AR2G tips; also called hsBCMA; BCMA (human)
T1 sequence: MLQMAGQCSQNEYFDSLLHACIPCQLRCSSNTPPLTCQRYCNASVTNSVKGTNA


What was measured:
Experiment in all cases: Octet BLI; Fab 200 nM
[1] = molecular target: T1, extracellular domain of human BCMA
[2] = molecular target: T2, extracellular domain of rhesus monkey BCMA (rhesus monkey, UniProt F7FFA0 1-53)
T2 construct: extracellular domain; also called RhBCMA

[3] = molecular target: T1, extracellular domain of human BCMA; remark: listed apart in the source
[4] = molecular target: T2, extracellular domain of rhesus monkey …; remark: listed apart in the source

T2 sequence (F7FFA0 entry or part of it): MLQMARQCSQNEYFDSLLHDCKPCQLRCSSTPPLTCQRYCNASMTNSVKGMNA

Binder | Kd [1] [nM] | Kd [2] [nM] | Kd [3] [nM] | Kd [4] [nM]
AB200-(2Vk30)_R2-VH-v31 (Fab, V domains shown) VH: QVQLVQSGAEVKKPGSSVKVSCKASGGTFSNYWIHWVRQAPGQGLEWMGATYRSQSDTNYNQKFKSRVTITADKSTSTAYMELSSLRSEDTAVYYCARGAVYHGYDVIDNWGQGTLVTVSS VL: DIQMTQSPSSLSASVGDRVTITCRASQSISSYLNWYQQKPGKAPKLLIYATSNLQIGVPSRFSGSGSGTDFTLTISSLQPEDFATYYCQQYRRIPWTFGQGTKLEIKR | 12.9 | 38.4 | – | –
AB200-(2Vk35)_R2-VH-v32 (Fab, V domains shown) VH: QVQLVQSGAEVKKPGSSVKVSCKASGGTFSNYWIHWVRQAPGQGLEWMGATYRSHSDTNYNQKYKSRVTITADKSTSTAYMELSSLRSEDTAVYYCARGAIFHGYDVIDNWGQGTLVTVSS VL: DIQMTQSPSSLSASVGDRVTITCRASQSISSYINWYQQKPGKAPKLLIYATSNLQSGVPSRFSGSGSGTDFTLTISSLQPEDFATYYCQQYRRIPWTFGQGTKLEIKR | – | – | 29.1 | 67.3
AB200-(2Vk30)_R2-VH-v74 (Fab, V domains shown) VH: QVQLVQSGAEVKKPGSSVKVSCKASGGTFSNYWIHWVRQAPGQGLEWMGATYRIHSDTYYAEKFKSRVTITADKSTSTAYMELSSLRSEDTAVYYCARGAIYHGFDVIDNWGQGTLVTVSS VL: DIQMTQSPSSLSASVGDRVTITCRASQSISSYLNWYQQKPGKAPKLLIYATSNLQIGVPSRFSGSGSGTDFTLTISSLQPEDFATYYCQQYRRIPWTFGQGTKLEIKR | 2.17 | 9.83 | – | –
AB200-(2Vk35)_R2-VH-v8 (Fab, V domains shown) VH: QVQLVQSGAEVKKPGSSVKVSCKASGGTYSNYWIHWVRQAPGQGLEWMGGTYRSQSDTYYNQKFKSRVTITADKSTSTAYMELSSLRSEDTAVYYCARGAIYHGFDVIDNWGQGTLVTVSS VL: DIQMTQSPSSLSASVGDRVTITCRASQSISSYINWYQQKPGKAPKLLIYATSNLQSGVPSRFSGSGSGTDFTLTISSLQPEDFATYYCQQYRRIPWTFGQGTKLEIKR | – | – | 12.1 | 38
AB200-(2Vk30)_R2-VH-v45 (Fab, V domains shown) VH: QVQLVQSGAEVKKPGSSVKVSCKASGGTYSNYWIHWVRQAPGQGLEWMGATYRIHSTTNYNQKFKSRVTITADKSTSTAYMELSSLRSEDTAVYYCARGAIFHGYDVIDNWGQGTLVTVSS VL: DIQMTQSPSSLSASVGDRVTITCRASQSISSYLNWYQQKPGKAPKLLIYATSNLQIGVPSRFSGSGSGTDFTLTISSLQPEDFATYYCQQYRRIPWTFGQGTKLEIKR | 720 | 3080 | – | –
AB200-(2Vk30)_R2-VH-v39 (Fab, V domains shown) VH: QVQLVQSGAEVKKPGSSVKVSCKASGGTFTNYWIHWVRQAPGQGLEWMGATYRIHSDTYYAEKFKSRVTITADKSTSTAYMELSSLRSEDTAVYYCARGAIFHGYDVIDNWGQGTLVTVSS VL: DIQMTQSPSSLSASVGDRVTITCRASQSISSYLNWYQQKPGKAPKLLIYATSNLQIGVPSRFSGSGSGTDFTLTISSLQPEDFATYYCQQYRRIPWTFGQGTKLEIKR | 3 | 15.4 | – | –
AB200-(2Vk35)_R2-VH-v46 (Fab, V domains shown) VH: QVQLVQSGAEVKKPGSSVKVSCKASGGTYSNYWIHWVRQAPGQGLEWMGATYRIQSDTNYNQKFKSRVTITADKSTSTAYMELSSLRSEDTAVYYCARGAIYHGYDVIENWGQGTLVTVSS VL: DIQMTQSPSSLSASVGDRVTITCRASQSISSYINWYQQKPGKAPKLLIYATSNLQSGVPSRFSGSGSGTDFTLTISSLQPEDFATYYCQQYRRIPWTFGQGTKLEIKR | – | – | 103 | 287
AB200-(2Vk35)_R2-VH-v36 (Fab, V domains shown) VH: QVQLVQSGAEVKKPGSSVKVSCKASGGTFSNYWIHWVRQAPGQGLEWMGATYRSHSDTYYAEKFKSRVTITADKSTSTAYMELSSLRSEDTAVYYCARGAIFHGYDVIDNWGQGTLVTVSS VL: DIQMTQSPSSLSASVGDRVTITCRASQSISSYINWYQQKPGKAPKLLIYATSNLQSGVPSRFSGSGSGTDFTLTISSLQPEDFATYYCQQYRRIPWTFGQGTKLEIKR | – | – | 3.15 | 14.8
AB200-(2Vk35)_R2-VH-v26 (Fab, V domains shown) VH: QVQLVQSGAEVKKPGSSVKVSCKASGGTFSNYWIHWVRQAPGQGLEWMGATYRSHSTTYYAQKFKSRVTITADKSTSTAYMELSSLRSEDTAVYYCARGAIFHGYDVIDNWGQGTLVTVSS VL: DIQMTQSPSSLSASVGDRVTITCRASQSISSYINWYQQKPGKAPKLLIYATSNLQSGVPSRFSGSGSGTDFTLTISSLQPEDFATYYCQQYRRIPWTFGQGTKLEIKR | – | – | 20.9 | 40.7
AB200-(2Vk30)_R2-VH-v40 (Fab, V domains shown) VH: QVQLVQSGAEVKKPGSSVKVSCKASGGTFTNYWIHWVRQAPGQGLEWMGATYRIHSTTYYAQKFKSRVTITADKSTSTAYMELSSLRSEDTAVYYCARGAIYHGFDVIDNWGQGTLVTVSS VL: DIQMTQSPSSLSASVGDRVTITCRASQSISSYLNWYQQKPGKAPKLLIYATSNLQIGVPSRFSGSGSGTDFTLTISSLQPEDFATYYCQQYRRIPWTFGQGTKLEIKR | 15.5 | 32.5 | – | –
AB200-(2Vk35)_R2-VH-v9 (Fab, V domains shown) VH: QVQLVQSGAEVKKPGSSVKVSCKASGGTYSNYWIHWVRQAPGQGLEWMGATYRSQSDTNYNQKFKSRVTITADKSTSTAYMELSSLRSEDTAVYYCARGAIYHGFDVIDNWGQGTLVTVSS VL: DIQMTQSPSSLSASVGDRVTITCRASQSISSYINWYQQKPGKAPKLLIYATSNLQSGVPSRFSGSGSGTDFTLTISSLQPEDFATYYCQQYRRIPWTFGQGTKLEIKR | – | – | 49.3 | 103
AB200-(2Vk35)_R2-VH-v38 (Fab, V domains shown) VH: QVQLVQSGAEVKKPGSSVKVSCKASGGTFSNYWIHWVRQAPGQGLEWMGATYRSQSDTYYNEKFKSRVTITADKSTSTAYMELSSLRSEDTAVYYCARGAIYHGFDVIDNWGQGTLVTVSS VL: DIQMTQSPSSLSASVGDRVTITCRASQSISSYINWYQQKPGKAPKLLIYATSNLQSGVPSRFSGSGSGTDFTLTISSLQPEDFATYYCQQYRRIPWTFGQGTKLEIKR | – | – | 1.89 | 9.59
AB200-(2Vk30)_R2-VH-v67 (Fab, V domains shown) VH: QVQLVQSGAEVKKPGSSVKVSCKASGGTFSNYWIHWVRQAPGQGLEWMGATYRIHSTTYYNEKFKSRVTITADKSTSTAYMELSSLRSEDTAVYYCARGAVYHGYDVIDNWGQGTLVTVSS VL: DIQMTQSPSSLSASVGDRVTITCRASQSISSYLNWYQQKPGKAPKLLIYATSNLQIGVPSRFSGSGSGTDFTLTISSLQPEDFATYYCQQYRRIPWTFGQGTKLEIKR | 16.8 | 35.7 | – | –
AB200-(2Vk35)_R2-VH-v11 (Fab, V domains shown) VH: QVQLVQSGAEVKKPGSSVKVSCKASGGTYSNYWIHWVRQAPGQGLEWMGATYRSHSDTNYNEKFKSRVTITADKSTSTAYMELSSLRSEDTAVYYCARGAVYHGYDVIDNWGQGTLVTVSS VL: DIQMTQSPSSLSASVGDRVTITCRASQSISSYINWYQQKPGKAPKLLIYATSNLQSGVPSRFSGSGSGTDFTLTISSLQPEDFATYYCQQYRRIPWTFGQGTKLEIKR | – | – | 47 | 130
AB200-(2Vk30)_R2-VH-v65 (Fab, V domains shown) VH: QVQLVQSGAEVKKPGSSVKVSCKASGGTFSNYWIHWVRQAPGQGLEWMGATYRIQSTTYYNQKFKSRVTITADKSTSTAYMELSSLRSEDTAVYYCARGAIYHGFDVIDNWGQGTLVTVSS VL: DIQMTQSPSSLSASVGDRVTITCRASQSISSYLNWYQQKPGKAPKLLIYATSNLQIGVPSRFSGSGSGTDFTLTISSLQPEDFATYYCQQYRRIPWTFGQGTKLEIKR | 27.3 | 46.8 | – | –
AB200-(2Vk35)_R2-VH-v15 (Fab, V domains shown) VH: QVQLVQSGAEVKKPGSSVKVSCKASGGSFSNYWIHWVRQAPGQGLEWMGATYRSQSTTYYNQKFKSRVTITADKSTSTAYMELSSLRSEDTAVYYCARGAIFHGYDVIDNWGQGTLVTVSS VL: DIQMTQSPSSLSASVGDRVTITCRASQSISSYINWYQQKPGKAPKLLIYATSNLQSGVPSRFSGSGSGTDFTLTISSLQPEDFATYYCQQYRRIPWTFGQGTKLEIKR | – | – | 25.5 | 48.6
AB200-(2Vk30)_R2-VH-v51 (Fab, V domains shown) VH: QVQLVQSGAEVKKPGSSVKVSCKASGGSFSNYWIHWVRQAPGQGLEWMGGTYRIQSDTYYNQKFKSRVTITADKSTSTAYMELSSLRSEDTAVYYCARGAIYHGYDVIENWGQGTLVTVSS VL: DIQMTQSPSSLSASVGDRVTITCRASQSISSYLNWYQQKPGKAPKLLIYATSNLQIGVPSRFSGSGSGTDFTLTISSLQPEDFATYYCQQYRRIPWTFGQGTKLEIKR | 20.3 | 68.9 | – | –
AB200-(2Vk30)_R2-VH-v59 (Fab, V domains shown) VH: QVQLVQSGAEVKKPGSSVKVSCKASGGTFSNYWIHWVRQAPGQGLEWMGGTYRIHSDTYYAQKFKSRVTITADKSTSTAYMELSSLRSEDTAVYYCARGAIYHGYDVIENWGQGTLVTVSS VL: DIQMTQSPSSLSASVGDRVTITCRASQSISSYLNWYQQKPGKAPKLLIYATSNLQIGVPSRFSGSGSGTDFTLTISSLQPEDFATYYCQQYRRIPWTFGQGTKLEIKR | 37.8 | 121 | – | –
AB200-(2Vk30)_R2-VH-v43 (Fab, V domains shown) VH: QVQLVQSGAEVKKPGSSVKVSCKASGGTFTNYWIHWVRQAPGQGLEWMGGTYRIHSDTYYAQKFKSRVTITADKSTSTAYMELSSLRSEDTAVYYCARGAIYHGFDVIDNWGQGTLVTVSS VL: DIQMTQSPSSLSASVGDRVTITCRASQSISSYLNWYQQKPGKAPKLLIYATSNLQIGVPSRFSGSGSGTDFTLTISSLQPEDFATYYCQQYRRIPWTFGQGTKLEIKR | 6.82 | 25.8 | – | –
AB200-(2Vk30)_R2-VH-v71 (Fab, V domains shown) VH: QVQLVQSGAEVKKPGSSVKVSCKASGGTFSNYWIHWVRQAPGQGLEWMGATYRIHSDTNYNEKFKSRVTITADKSTSTAYMELSSLRSEDTAVYYCARGAIFHGYDVIDNWGQGTLVTVSS VL: DIQMTQSPSSLSASVGDRVTITCRASQSISSYLNWYQQKPGKAPKLLIYATSNLQIGVPSRFSGSGSGTDFTLTISSLQPEDFATYYCQQYRRIPWTFGQGTKLEIKR | 29.7 | 64.1 | – | –
